Data from patent US20120213844A1.
Positions of bridges follow the written chain, without caps; N, C: chain ends. No end group written: not given here. PEG = not defined here

Target: human EGFR on tumor cells (human) (UniProt P00533)
Experiment: flow cytometry on A431 cells preincubated with 2 ug EGF, 2 uM bio-P190:avidin complex, 4 C

staining, fold over background: 20 fold
Binder: DPCTWEVWGRECLQ-{PEG-biotin} (disulfide 3-12 (inferred); reading uncertain) [Biotinylated-PEGylated P190]
